{"source": "patent US20240342284A1", "about": "(ARSENAL BIOSCIENCES, published 2024)", "key": {"[1]": {"target": "T1, human CA9 isoform with 91-96 deletion, expressed on HEK293T cells (human, UniProt Q16790 38-459)", "T1 construct": "also called CA9-91-96del; 91-96del CA9", "experiment": "flow cytometry histograms on the 91-96del CA9 HEK293T line, secondary mouse anti human IgG2 stain"}, "[2]": {"target": "T2, human Carbonic Anhydrase IX (CA9) expressed on cells (human, UniProt Q16790 38-459)", "experiment": "flow cytometry histograms on the wt line 293T-LP81-CA9(CL572), secondary mouse anti human IgG2 stain"}, "[3]": {"target": "T3, human CA9 isoform with Q326R SNP, expressed on HEK293T cells (human, UniProt Q16790 38-459)", "T3 construct": "also called CA9-Q326R; Q326R CA9", "experiment": "flow cytometry histograms on the snpQ326R CA9 HEK293T line, secondary mouse anti human IgG2 stain"}, "[4]": {"target": "T4, mouse CA9 expressed on HEK293T cells (mouse, UniProt Q8VHB5 32-437)", "T4 construct": "whole, on cells; also called HEK293T-mCA9; mCA9", "T4 sequence (Q8VHB5 32-437)": "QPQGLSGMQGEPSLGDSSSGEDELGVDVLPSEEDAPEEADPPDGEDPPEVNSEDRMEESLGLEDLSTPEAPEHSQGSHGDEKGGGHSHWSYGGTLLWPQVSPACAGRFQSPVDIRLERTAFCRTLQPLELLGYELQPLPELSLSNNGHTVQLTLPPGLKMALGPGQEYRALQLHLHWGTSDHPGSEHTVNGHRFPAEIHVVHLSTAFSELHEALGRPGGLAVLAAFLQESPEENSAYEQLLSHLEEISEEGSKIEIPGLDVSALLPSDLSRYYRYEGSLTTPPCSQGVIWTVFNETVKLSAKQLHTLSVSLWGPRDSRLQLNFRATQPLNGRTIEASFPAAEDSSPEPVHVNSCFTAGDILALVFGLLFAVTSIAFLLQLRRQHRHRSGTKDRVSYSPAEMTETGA", "experiment": "flow cytometry histograms on HEK293T-mCA9 cells (panel B, left), axis CA9 1 ab MFI", "from_the_text": "To assess cross-reactivity of CA9 1 to mouse CA9 and further confirm the binding kinetics to human CA9, HEK293T-mCA9 cells were stained with increasing concentrations of CA9 1-mIgG2a then analyzed by flow cytometry. Recombinant CA9 1-mIgG2a protein was titrated against parental and engineered HEK293T cell lines expressing mouse CA9. Target cells were also stained with positive control antibodies to confirm expression of mouse CA9 on the engineered HEK293T cells. Following primary staining, the cells were washed, stained with secondary antibody, and subsequently analyzed by flow cytometry. Data were analyzed using FlowJo. Target cells were also stained using an anti-mouse CA9 positive control antibody to confirm expression of mouse CA9 on the HEK293T-mCA9 cells."}, "[5]": {"target": "T2, human Carbonic Anhydrase IX (CA9) …", "experiment": "flow cytometry, 8-point serial dilution on HEK293T-CA9 cells, anti-mouse IgG2a-PE secondary, gMFI", "method": "(§1) Binding of recombinant CA9 1-mIgG2a and CA9 2-mIgG2a to CA9 was assessed by cell binding dose curves on parental HEK293T cells and HEK293T-CA9 expressing cell lines. Briefly, HEK293T parental and HEK293T-CA9 engineered cells were first blocked with human Fc blocker for 10 min at room temperature, stained for 30 min on ice with recombinant antibodies in an 8-point serial dilution, and washed 3 times with BD Stain Buffer. Subsequently, cells were stained for 30 min on ice with anti-mouse IgG2a-PE secondary antibody. Cell surface binding was measured on an Attune flow cytometer, with geometric mean fluorescence intensity (gMFI) data analyzed in FlowJo and plotted using GraphPad Prism. The dose-response curves and EC50 value were analyzed and obtained using the nonlinear fit model of (agonist) versus response (three parameters).\n(§2) There was no binding to parental HEK293T cells."}, "recombinant mouse CA9": {"target": "T5, recombinant mouse CA9 (mouse, UniProt Q8VHB5 32-390, limits assumed)", "T5 construct": "also called mouse homolog of CA9", "T5 sequence (Q8VHB5 32-390 limits assumed)": "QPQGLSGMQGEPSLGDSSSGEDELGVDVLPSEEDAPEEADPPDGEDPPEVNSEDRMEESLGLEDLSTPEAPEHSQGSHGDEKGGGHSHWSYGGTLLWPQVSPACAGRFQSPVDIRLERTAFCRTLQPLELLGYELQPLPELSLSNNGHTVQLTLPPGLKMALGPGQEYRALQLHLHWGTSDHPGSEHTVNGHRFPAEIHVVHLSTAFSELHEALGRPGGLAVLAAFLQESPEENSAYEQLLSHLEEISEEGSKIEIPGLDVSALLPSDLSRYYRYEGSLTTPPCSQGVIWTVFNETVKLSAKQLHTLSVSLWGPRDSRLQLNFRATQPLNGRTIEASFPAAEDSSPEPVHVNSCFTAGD", "experiment": "BLI (Octet R8), antibody on anti-mouse capture biosensors, recombinant antigen as analyte", "method": "(§3) The binding affinity of recombinant CA9 antibodies to human CA9 target antigen and cross-reactivity to mouse homologs was measured on the Octet R8. Briefly, recombinant antibody was loaded onto anti-mouse capture (AMC) Octet biosensors. Biosensors were then dipped into different concentrations of recombinant target antigen (analyte) solution, and the rate of protein-protein complex formation (association) measured. Protein-protein dissociation rates were measured when the biosensors were dipped into kinetic buffer alone. The Octet Analysis Studio 13.0 software calculated the response in equilibrium (Req) using the association and dissociation signal. The KD value and other kinetics parameters were determined by the values of Req for each analyte concentration (Table 1).\nas §3, with “recombinant” for “recombinant CA9”, “PSMA” for “CA9”, “R8 instrument. […]” for “R8. Briefly, recombinant antibody was loaded onto anti-mouse capture (AMC) Octet biosensors.”, “The KD value and other kinetics parameters were determined by the values of Req for each analyte concentration (Table 1).” left out"}, "recombinant human CA9": {"target": "recombinant human CA9 (human, UniProt Q16790 38-414)", "experiment": "BLI (Octet R8), antibody on anti-mouse capture biosensors, recombinant human CA9 as analyte", "method": "as §3"}, "recombinant human PSMA": {"target": "T6, recombinant human PSMA (human, UniProt Q04609 44-750)", "T6 construct": "Soluble recombinant antigen used as analyte on the Octet", "T6 sequence (Q04609 44-750 limits assumed)": "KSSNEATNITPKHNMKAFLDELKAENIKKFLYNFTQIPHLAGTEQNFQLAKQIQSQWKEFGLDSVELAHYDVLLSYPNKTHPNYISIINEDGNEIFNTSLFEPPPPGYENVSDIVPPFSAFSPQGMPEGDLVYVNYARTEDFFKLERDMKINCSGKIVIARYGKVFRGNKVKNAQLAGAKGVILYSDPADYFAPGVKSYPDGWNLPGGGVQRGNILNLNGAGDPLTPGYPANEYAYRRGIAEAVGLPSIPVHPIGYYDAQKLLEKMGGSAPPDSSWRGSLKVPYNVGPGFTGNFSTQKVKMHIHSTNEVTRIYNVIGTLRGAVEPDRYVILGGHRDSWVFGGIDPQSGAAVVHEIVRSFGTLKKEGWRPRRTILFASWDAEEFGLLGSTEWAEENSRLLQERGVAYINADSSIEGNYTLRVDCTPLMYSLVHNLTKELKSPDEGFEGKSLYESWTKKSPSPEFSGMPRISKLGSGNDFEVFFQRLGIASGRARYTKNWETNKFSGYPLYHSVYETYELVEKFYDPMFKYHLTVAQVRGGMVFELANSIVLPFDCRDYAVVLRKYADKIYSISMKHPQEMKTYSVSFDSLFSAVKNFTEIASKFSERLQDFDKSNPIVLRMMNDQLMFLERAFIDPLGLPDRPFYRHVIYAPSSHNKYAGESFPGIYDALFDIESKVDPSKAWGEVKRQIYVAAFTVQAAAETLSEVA", "experiment": "BLI (Octet R8), antibody on anti-mouse capture biosensors, recombinant human PSMA as analyte", "method": "as §3, with “recombinant” for “recombinant CA9”, “PSMA” for “CA9”, “R8 instrument.” for “R8.”, “2).” for “1).”"}, "[6]": {"target": "T7, human Prostate-Specific Membrane Antigen (PSMA) expressed on cells (human, UniProt Q04609 1-750)", "T7 construct": "also called FOLH1; HEK293T-PSMA", "T7 sequence (Q04609 whole entry)": "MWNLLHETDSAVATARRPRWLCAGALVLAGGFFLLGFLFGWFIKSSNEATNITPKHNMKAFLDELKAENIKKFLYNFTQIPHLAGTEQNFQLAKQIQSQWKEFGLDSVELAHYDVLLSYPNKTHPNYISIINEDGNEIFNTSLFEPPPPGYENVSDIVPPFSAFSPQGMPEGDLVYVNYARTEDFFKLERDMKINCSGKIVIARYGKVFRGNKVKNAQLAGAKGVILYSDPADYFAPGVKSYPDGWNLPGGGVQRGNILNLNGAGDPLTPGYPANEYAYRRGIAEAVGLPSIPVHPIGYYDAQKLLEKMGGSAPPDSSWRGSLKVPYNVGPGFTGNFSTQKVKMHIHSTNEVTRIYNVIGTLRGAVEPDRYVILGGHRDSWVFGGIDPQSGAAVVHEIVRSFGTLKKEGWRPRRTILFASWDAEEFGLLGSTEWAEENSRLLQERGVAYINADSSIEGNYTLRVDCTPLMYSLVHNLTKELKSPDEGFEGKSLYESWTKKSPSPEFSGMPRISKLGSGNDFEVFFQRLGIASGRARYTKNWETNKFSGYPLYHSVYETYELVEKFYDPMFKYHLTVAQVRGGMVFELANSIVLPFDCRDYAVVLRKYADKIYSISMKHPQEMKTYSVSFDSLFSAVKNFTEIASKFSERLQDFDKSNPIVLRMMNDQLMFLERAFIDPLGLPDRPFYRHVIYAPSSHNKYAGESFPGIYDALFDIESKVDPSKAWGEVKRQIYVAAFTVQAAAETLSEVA", "experiment": "flow cytometry, 8-point serial dilution on HEK293T-PSMA cells, anti-mouse IgG2a-PE secondary, gMFI", "method": "as §1, with “PSMA expressing HEK293T cell lines were used to assess the binding” for “Binding”, “antibodies” for “CA9 1-mIgG2a and CA9 2-mIgG2a”, “to” for “to CA9 was assessed by”, “surface expressed PSMA.” for “binding dose curves on parental HEK293T cells and HEK293T-CA9 expressing cell lines.”, “HEK293T-PSMA” for “HEK293T-CA9”\nas §2"}, "recombinant mouse PSMA": {"target": "T8, recombinant mouse PSMA (mouse, UniProt O35409 45-752, limits assumed)", "T8 construct": "also called mouse homolog of PSMA", "T8 sequence (O35409 45-752 limits assumed)": "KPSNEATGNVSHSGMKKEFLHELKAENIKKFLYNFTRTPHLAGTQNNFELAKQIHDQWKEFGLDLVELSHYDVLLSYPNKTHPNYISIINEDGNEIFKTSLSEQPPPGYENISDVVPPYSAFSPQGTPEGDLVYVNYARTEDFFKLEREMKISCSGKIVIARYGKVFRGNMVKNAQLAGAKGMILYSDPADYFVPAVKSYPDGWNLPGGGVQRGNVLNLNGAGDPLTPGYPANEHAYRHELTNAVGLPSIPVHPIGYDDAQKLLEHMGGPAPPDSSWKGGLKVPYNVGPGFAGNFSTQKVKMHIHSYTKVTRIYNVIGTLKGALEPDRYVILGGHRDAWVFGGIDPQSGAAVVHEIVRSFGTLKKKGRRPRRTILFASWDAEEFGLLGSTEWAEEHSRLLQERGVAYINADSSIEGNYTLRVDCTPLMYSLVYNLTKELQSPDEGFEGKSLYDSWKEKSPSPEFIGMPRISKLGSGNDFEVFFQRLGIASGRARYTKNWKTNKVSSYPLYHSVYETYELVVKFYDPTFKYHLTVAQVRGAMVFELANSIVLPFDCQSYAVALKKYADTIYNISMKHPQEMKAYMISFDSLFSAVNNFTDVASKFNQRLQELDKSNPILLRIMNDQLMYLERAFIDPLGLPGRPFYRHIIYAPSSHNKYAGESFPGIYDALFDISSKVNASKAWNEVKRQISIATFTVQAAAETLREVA", "experiment": "BLI (Octet R8), antibody on anti-mouse capture biosensors, recombinant antigen as analyte", "method": "as §3\nas §3, with “recombinant” for “recombinant CA9”, “PSMA” for “CA9”, “R8 instrument. […]” for “R8. Briefly, recombinant antibody was loaded onto anti-mouse capture (AMC) Octet biosensors.”, “The KD value and other kinetics parameters were determined by the values of Req for each analyte concentration (Table 1).” left out"}, "[7]": {"target": "T9, mouse PSMA expressed on HEK293T cells (mouse, UniProt O35409 1-752)", "T9 construct": "whole, on cells; also called HEK293T-mPSMA; mPSMA", "T9 sequence (O35409 whole entry)": "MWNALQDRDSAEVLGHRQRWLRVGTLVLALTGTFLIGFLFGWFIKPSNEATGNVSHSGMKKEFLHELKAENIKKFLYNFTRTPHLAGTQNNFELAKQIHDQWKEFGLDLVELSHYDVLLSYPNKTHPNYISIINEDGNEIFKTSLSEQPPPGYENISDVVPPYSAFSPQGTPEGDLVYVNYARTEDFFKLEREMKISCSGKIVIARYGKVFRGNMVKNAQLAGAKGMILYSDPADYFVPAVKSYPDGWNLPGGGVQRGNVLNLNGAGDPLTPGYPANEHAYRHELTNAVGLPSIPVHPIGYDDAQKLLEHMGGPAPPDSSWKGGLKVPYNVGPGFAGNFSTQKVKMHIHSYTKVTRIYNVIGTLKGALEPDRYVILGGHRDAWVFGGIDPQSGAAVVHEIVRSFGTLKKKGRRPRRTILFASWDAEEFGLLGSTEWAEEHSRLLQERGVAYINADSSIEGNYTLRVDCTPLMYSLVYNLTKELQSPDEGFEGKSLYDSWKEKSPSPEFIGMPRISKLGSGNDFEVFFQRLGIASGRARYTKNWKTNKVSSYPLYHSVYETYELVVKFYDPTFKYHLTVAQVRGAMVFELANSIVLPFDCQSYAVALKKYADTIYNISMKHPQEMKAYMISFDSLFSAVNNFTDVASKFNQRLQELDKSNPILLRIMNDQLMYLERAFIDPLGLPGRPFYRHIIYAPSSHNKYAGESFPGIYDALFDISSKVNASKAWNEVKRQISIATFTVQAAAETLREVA", "experiment": "flow cytometry histograms on HEK293T-mPSMA cells (panel B, left), axis PSMA 1 ab MFI", "method": "Cross-reactivity of PSMA 1 to mouse PSMA was evaluated using flow cytometry. In brief, HEK293T cells expressing mouse PSMA (HEK293T-mPSMA) were stained for 30 min on ice with increasing concentrations of PSMA 1-mIgG2a. Target cells were also stained with positive control antibodies to confirm expression of mouse PSMA on the engineered HEK293T cells. Following primary staining, the cells were washed, stained with secondary antibody, and subsequently analyzed by flow cytometry. Data were analyzed using FlowJo."}, "[8]": {"target": "T7, human Prostate-Specific Membrane …", "experiment": "flow cytometry dose curves on HEK293T-PSMA against parental cells (data not shown)", "method": "as §1, with “PSMA expressing HEK293T cell lines were used to assess the binding” for “Binding”, “antibodies” for “CA9 1-mIgG2a and CA9 2-mIgG2a”, “to” for “to CA9 was assessed by”, “surface expressed PSMA.” for “binding dose curves on parental HEK293T cells and HEK293T-CA9 expressing cell lines.”, “HEK293T-PSMA” for “HEK293T-CA9”\nBinding of PSMA 1-mIgG2a or PSMA 2-mIgG2a to PSMA was assessed by cell binding dose curves on parental HEK293T cells and HEK293T-PSMA expressing cell lines. […] (data not shown)"}, "[9]": {"target": "T2, human Carbonic Anhydrase IX (CA9) …", "experiment": "flow cytometry on HEK293T-CA9 against parental cells (data not shown)", "method": "as §1"}}, "data": [{"binder": "CA9 2 scFv (as printed; CA9 2 is a VH-only single domain) (VHH, It was detected with a secondary 'mouse anti human IgG2' stain) VHH: EVQLVESGGGLVQPGGSLRLSCAASGFSFSDYSGMSWVRQAPGKGEELVSAISPGGGDTYYADSVKGRFTISRDNSKNTLYLQMNSLRAEDTAVYYCARRWWYYSNHSGDYDYFDYRGQGTLVTVSS", "values": [{"measurement": "binding result", "setting": "[1]", "value": "binds"}, {"measurement": "binding result", "setting": "[2]", "value": "binds"}, {"measurement": "binding result", "setting": "[3]", "value": "binds"}]}, {"binder": "CA9 1 scFv (scFv, Used to stain the CA9 isoform cell lines; It was detected with a secondary 'mouse anti human IgG2' stain) scFv: QVQLVQSGAEVKKPGASVKVSCKASGYTFTSYYMHWVRQAPGQGLEWMGIINPSRGSASYAQKFQGRVTMARDTSTSTVYMELSSLRSEDTAVYYCARDRNYYYYMDVWGKGTTVTVSSGGGGSGGGGSGGGGSEIVMTQSPATLSVSPGERATLSCRASQNISSNLAWYQQKPGQAPRLLIYGASTRATDIPARFSGSGSGTEFTLTISSLQSEDFAVYYCQQYITWYTFGQGTKLEIK", "values": [{"measurement": "binding result", "setting": "[1]", "value": "binds"}, {"measurement": "binding result", "setting": "[2]", "value": "binds"}, {"measurement": "binding result", "setting": "[3]", "value": "binds"}]}, {"binder": "CA9 1-mIgG2a (antibody, V domains shown, Fully human VH and VL cloned into mammalian expression vectors with mouse IgG2a constant domains (chimeric antibody, expressed in CHO); also called CA9 1 antigen biding fragment) VH: QVQLVQSGAEVKKPGASVKVSCKASGYTFTSYYMHWVRQAPGQGLEWMGIINPSRGSASYAQKFQGRVTMARDTSTSTVYMELSSLRSEDTAVYYCARDRNYYYYMDVWGKGTTVTVSS VL: EIVMTQSPATLSVSPGERATLSCRASQNISSNLAWYQQKPGQAPRLLIYGASTRATDIPARFSGSGSGTEFTLTISSLQSEDFAVYYCQQYITWYTFGQGTKLEIK", "values": [{"measurement": "binding result", "setting": "[4]", "value": "no binding (tested: 30 µg/mL)"}, {"measurement": "EC50", "setting": "[5]", "value": 920, "unit": "pM"}, {"measurement": "binding result", "setting": "recombinant mouse CA9", "value": "no binding"}, {"measurement": "Kd", "setting": "recombinant human CA9", "value": 150, "unit": "pM"}, {"measurement": "koff", "setting": "recombinant human CA9", "value": "4.9e-05", "unit": "s⁻¹"}, {"measurement": "kon", "setting": "recombinant human CA9", "value": 325000, "unit": "M⁻¹ s⁻¹"}]}, {"binder": "PSMA 1-mIgG2a (antibody, V domains shown, Fully human VH and VL cloned into vectors with mouse IgG2a constant domains (chimeric, expressed in CHO); also called PSMA 1 antigen biding fragment) VH: QVQLVQSGPEVKKPGASVKVSCKASGYTFTSYGITWVRQAPGQGLEWMGWISEYNGNTNYAQKFQGRVTMTIDTSTTTAYMELRSLRSDDTAVYFCARGGILPYYFFYYMDVWGKGTTVTVSS VL: not shown", "values": [{"measurement": "Kd", "setting": "recombinant human PSMA", "value": 300, "unit": "pM"}, {"measurement": "koff", "setting": "recombinant human PSMA", "value": "1.89e-05", "unit": "s⁻¹"}, {"measurement": "kon", "setting": "recombinant human PSMA", "value": 63300, "unit": "M⁻¹ s⁻¹"}, {"measurement": "EC50", "setting": "[6]", "value": 1860, "unit": "pM"}, {"measurement": "binding result", "setting": "recombinant mouse PSMA", "value": "no binding"}, {"measurement": "binding result", "setting": "[7]", "value": "no binding (tested: 30 µg/mL)"}]}, {"binder": "PSMA 2-mIgG2a (antibody, V domains shown, Fully human VH and VL cloned into vectors with mouse IgG2a constant domains (chimeric, expressed in CHO)) VH: QVQLVQSGAEVKKPGASVKVSCKASGYTFSSYGVSWVRQAPGQGLEWMGWISKYNGNTNYAQKFQGRVTMTTDTSTSTAYMELRSLRSDDTAVYFCARGGIHGDSYYFYYLDVWGKGTTVTVSS VL: not shown", "values": [{"measurement": "binding result", "setting": "[8]", "value": "binds"}]}, {"binder": "CA9 2-mIgG2a (antibody, V domains shown) VH: EVQLVESGGGLVQPGGSLRLSCAASGFSFSDYSGMSWVRQAPGKGEELVSAISPGGGDTYYADSVKGRFTISRDNSKNTLYLQMNSLRAEDTAVYYCARRWWYYSNHSGDYDYFDYRGQGTLVTVSS", "values": [{"measurement": "binding result", "setting": "[9]", "value": "binds"}]}]}
